Reference: patent publication US20240279325A1 (Chugai, published 2024)

T1: human FcγRIIa type H (allotype H131) extracellular domain with C-terminal His tag (human, UniProt P12318 34-217)
T1 construct: extracellular domain; also called FcγRIIaH; not shown: His tag at the C terminus
T1 sequence (looked up): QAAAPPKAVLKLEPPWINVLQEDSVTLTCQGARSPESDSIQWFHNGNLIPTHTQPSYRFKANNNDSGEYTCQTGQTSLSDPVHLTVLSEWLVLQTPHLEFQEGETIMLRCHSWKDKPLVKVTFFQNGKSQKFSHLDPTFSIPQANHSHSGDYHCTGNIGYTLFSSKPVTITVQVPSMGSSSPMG

T2: FcγRIIb extracellular domain with C-terminal His tag (human, UniProt P31994 43-217)
T2 construct: extracellular domain
T2 sequence (looked up): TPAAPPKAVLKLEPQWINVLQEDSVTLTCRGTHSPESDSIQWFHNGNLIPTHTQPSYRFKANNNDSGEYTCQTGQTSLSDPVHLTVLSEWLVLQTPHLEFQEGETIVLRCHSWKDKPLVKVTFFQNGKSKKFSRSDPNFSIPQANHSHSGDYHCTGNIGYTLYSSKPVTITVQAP

T3: FcγRIIa type R (allotype R131) extracellular domain with C-terminal His tag (human, UniProt P12318 34-217)
T3 construct: extracellular domain; also called FcγRIIaR; FcγRIIa R type
T3 sequence (looked up): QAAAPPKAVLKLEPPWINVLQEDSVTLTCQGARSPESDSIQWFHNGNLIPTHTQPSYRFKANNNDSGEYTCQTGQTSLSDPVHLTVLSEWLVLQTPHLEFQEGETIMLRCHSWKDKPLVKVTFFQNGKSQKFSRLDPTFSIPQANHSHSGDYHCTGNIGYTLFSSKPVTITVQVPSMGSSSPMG


Key:
[1] = molecular target: T1, human FcγRIIa type H (allotype H131) …; experiment: SPR (Biacore), antibody captured, FcγR analyte
[2] = molecular target: T2, FcγRIIb extracellular domain with …; experiment: SPR; KD for FcγRIIaR divided by KD for FcγRIIb
[3] = molecular target: T2, FcγRIIb extracellular domain with …; experiment: SPR; KD of IL6R-B3/IL6R-L divided by KD of the variant
[4] = molecular target: T3, FcγRIIa type R (allotype R131) …; experiment: as above
[5] = molecular target: T2, FcγRIIb extracellular domain with …; experiment: SPR; KD for FcγRIIaH divided by KD for FcγRIIb

| Kd [1] [µM] | KD(IIaR)/KD(IIb) [2] | KD(IIb) OF PARENT POLYPEPTIDE/KD(IIb) OF ALTERED POLYPEPTIDE [3] | KD(IIaR) OF PARENT POLYPEPTIDE/KD(IIaR) OF ALTERED POLYPEPTIDE [4] | KD(IIaH)/KD(IIb) [5] | Binder |
| --- | --- | --- | --- | --- | --- |
| 93 | – | – | – | – | IL6R-BP186/IL6R-L (antibody, human IgG1, kappa, name in EU numbering, EU numbering; copies: 2 + 2) heavy: QVQLQESGPGLVKPSETLSLTCAVSGHSISHDHAWSWVRQPPGEGLEWIGFISYSGITNYNPSLQGRVTISRDNSKNTLYLQMNSLRAEDTAVYYCARSLARTTAMDYWGEGTLVTVSSASTKGPSVFPLAPSSKSTSGGTAALGCLVKDYFPEPVTVSWNSGALTSGVHTFPAVLQSSGLYSLSSVVTVPSSSLGTQTYICNVNHKPSNTKVDKKVEPKSCDKTHTCPPCPAPDYLGDDSVFLFPPKPKDTLMISRTPEVTCVVVDVSHEDGEVKFNWYVDGVEVHNAKTKPREEQDNSTYRVVSVLTVLHQDWLNGKEYKCKVSNAALPKPIEKTISKAKGQPREPQVYTLPPSRDELTKNQVSLTCLVKGFYPSDIAVEWESNGQPENNYKTTPPVLDSDGSFFLYSKLTVDKSRWQQGNVFSCSVMHEALHNHYTQESLSLSP light: not shown |
| 83 | – | – | – | – | IL6R-BP208/IL6R-L (antibody, human IgG1, kappa, name in EU numbering, EU numbering; copies: 2 + 2) heavy: QVQLQESGPGLVKPSETLSLTCAVSGHSISHDHAWSWVRQPPGEGLEWIGFISYSGITNYNPSLQGRVTISRDNSKNTLYLQMNSLRAEDTAVYYCARSLARTTAMDYWGEGTLVTVSSASTKGPSVFPLAPSSKSTSGGTAALGCLVKDYFPEPVTVSWNSGALTSGVHTFPAVLQSSGLYSLSSVVTVPSSSLGTQTYICNVNHKPSNTKVDKKVEPKSCDKTHTCPPCPAPDLLGDDSVFLFPPKPKDTLMISRTPEVTCVVVDVSDEDGEVKFNWYVDGVEVHNAKTKPREEQYNSTYRVVSVLTVLHQDWLNGKEYKCKVSNKALPRPIEKTISKAKGQPREPQVYTLPPSRDELTKNQVSLTCLVKGFYPSDIAVEWESNGQPENNYKTTPPVLDSDGSFFLYSKLTVDKSRWQQGNVFSCSVMHEALHNHYTQESLSLSP light: not shown |
| 85 | – | – | – | – | IL6R-BP194/IL6R-L (antibody, human IgG1, kappa, name in EU numbering, EU numbering; copies: 2 + 2) heavy: QVQLQESGPGLVKPSETLSLTCAVSGHSISHDHAWSWVRQPPGEGLEWIGFISYSGITNYNPSLQGRVTISRDNSKNTLYLQMNSLRAEDTAVYYCARSLARTTAMDYWGEGTLVTVSSASTKGPSVFPLAPSSKSTSGGTAALGCLVKDYFPEPVTVSWNSGALTSGVHTFPAVLQSSGLYSLSSVVTVPSSSLGTQTYICNVNHKPSNTKVDKKVEPKSCDKTHTCPPCPAPDYLGDDSVFLFPPKPKDTLMISRTPEVTCVVVDVSDEDGEVKFNWYVDGVEVHNAKTKPREEQYNSTYRVVSVLTVLHQDWLNGKEYKCKVSNAALPKPIEKTISKAKGQPREPQVYTLPPSRDELTKNQVSLTCLVKGFYPSDIAVEWESNGQPENNYKTTPPVLDSDGSFFLYSKLTVDKSRWQQGNVFSCSVMHEALHNHYTQESLSLSP light: not shown |
| – | 33.2 | 1810 | 19.4 | 503 | IL6R-BP503/IL6R-L (antibody, human IgG1, kappa, name in EU numbering, copies: 2 + 2) heavy: QVQLQESGPGLVKPSETLSLTCAVSGHSISHDHAWSWVRQPPGEGLEWIGFISYSGITNYNPSLQGRVTISRDNSKNTLYLQMNSLRAEDTAVYYCARSLARTTAMDYWGEGTLVTVSSASTKGPSVFPLAPSSKSTSGGTAALGCLVKDYFPEPVTVSWNSGALTSGVHTFPAVLQSSGLYSLSSVVTVPSSSLGTQTYICNVNHKPSNTKVDKKVEPKSCDKTHTCPPCPAPDLLGDDSVFLFPPKPKDTLMISRTPEVTCVVIDVAEEDGEVKFNWYVDGVEVHNAKTKPREEQDNSTYRVVSVLTVLHQDWLNGKEYKCKVSNKGLPRPIEKTISKAKGQPREPQVYTLPPSRDELTKNQVSLTCLVKGFYPSDIAVEWESNGQPENNYKTTPMVLDSDGSFFLYSKLTVDKSRWQQGNVFSCSVMHEALHNHYTQESLSLSP light: not shown |
| 92 | – | – | – | – | IL6R-BP214/IL6R-L (antibody, human IgG1, kappa, name in EU numbering, EU numbering; copies: 2 + 2) heavy: QVQLQESGPGLVKPSETLSLTCAVSGHSISHDHAWSWVRQPPGEGLEWIGFISYSGITNYNPSLQGRVTISRDNSKNTLYLQMNSLRAEDTAVYYCARSLARTTAMDYWGEGTLVTVSSASTKGPSVFPLAPSSKSTSGGTAALGCLVKDYFPEPVTVSWNSGALTSGVHTFPAVLQSSGLYSLSSVVTVPSSSLGTQTYICNVNHKPSNTKVDKKVEPKSCDKTHTCPPCPAPDYLGDDSVFLFPPKPKDTLMISRTPEVTCVVVDVSHEDPEVKFNWYVDGVEVHNAKTKPREEQDNSTYRVVSVLTVLHQDWLNGKEYKCKVSNDALPKPIEKTISKAKGQPREPQVYTLPPSRDELTKNQVSLTCLVKGFYPSDIAVEWESNGQPENNYKTTPPVLDSDGSFFLYSKLTVDKSRWQQGNVFSCSVMHEALHNHYTQESLSLSP light: not shown |
| – | 29.2 | 174 | 2.1 | 444 | IL6R-BP509/IL6R-L (antibody, human IgG1, kappa, name in EU numbering, copies: 2 + 2) heavy: QVQLQESGPGLVKPSETLSLTCAVSGHSISHDHAWSWVRQPPGEGLEWIGFISYSGITNYNPSLQGRVTISRDNSKNTLYLQMNSLRAEDTAVYYCARSLARTTAMDYWGEGTLVTVSSASTKGPSVFPLAPSSKSTSGGTAALGCLVKDYFPEPVTVSWNSGALTSGVHTFPAVLQSSGLYSLSSVVTVPSSSLGTQTYICNVNHKPSNTKVDKKVEPKSCDKTHTCPPCPAPDLLGDDSVFLFPPKPKDTLMISRTPEVTCVVIDVAEEDGDVKFNWYVDGVEVHNAKTKPREEQDNSTYRVVSVLTVLHQDWLNGKEYKCKVSNKALPAPIEKTISKAKGQPREPQVYTLPPSRDELTKNQVSLTCLVKGFYPSDIAVEWESNGQPENNYKTTPPVLDSDGSFFLYSKLTVDKSRWQQGNVFSCSVMHEALHNHYTQESLSLSP light: not shown |
| – | 50.6 | 891 | 6.3 | 1240 | IL6R-BP511/IL6R-L (antibody, human IgG1, kappa, name in EU numbering, copies: 2 + 2) heavy: QVQLQESGPGLVKPSETLSLTCAVSGHSISHDHAWSWVRQPPGEGLEWIGFISYSGITNYNPSLQGRVTISRDNSKNTLYLQMNSLRAEDTAVYYCARSLARTTAMDYWGEGTLVTVSSASTKGPSVFPLAPSSKSTSGGTAALGCLVKDYFPEPVTVSWNSGALTSGVHTFPAVLQSSGLYSLSSVVTVPSSSLGTQTYICNVNHKPSNTKVDKKVEPKSCDKTHTCPPCPAPELLGDDSVFLFPPKPKDTLMISRTPEVTCVVIDVAEEDGPVKFNWYVDGVEVHNAKTKPREEQDNSTYRVVSVLTVLHQDWLNGKEYKCKVSNKALPRPIEKTISKAKGQPREPQVYTLPPSRDELTKNQVSLTCLVKGFYPSDIAVEWESNGQPENNYKTTPPVLDSDGSFFLYSKLTVDKSRWQQGNVFSCSVMHEALHNHYTQESLSLSP light: not shown |
| 69 | – | – | – | – | IL6R-BP201/IL6R-L (antibody, human IgG1, kappa, name in EU numbering, EU numbering; copies: 2 + 2) heavy: QVQLQESGPGLVKPSETLSLTCAVSGHSISHDHAWSWVRQPPGEGLEWIGFISYSGITNYNPSLQGRVTISRDNSKNTLYLQMNSLRAEDTAVYYCARSLARTTAMDYWGEGTLVTVSSASTKGPSVFPLAPSSKSTSGGTAALGCLVKDYFPEPVTVSWNSGALTSGVHTFPAVLQSSGLYSLSSVVTVPSSSLGTQTYICNVNHKPSNTKVDKKVEPKSCDKTHTCPPCPAPDLLGDDSVFLFPPKPKDTLMISRTPEVTCVVVDVSHEDGEVKFNWYVDGVEVHNAKTKPREEQYNSTYRVVSVLTVLHQDWLNGKEYKCKVSNKALPRPIEKTISKAKGQPREPQVYTLPPSRDELTKNQVSLTCLVKGFYPSDIAVEWESNGQPENNYKTTPPVLDSDGSFFLYSKLTVDKSRWQQGNVFSCSVMHEALHNHYTQESLSLSP light: not shown |
| – | 26 | 149 | 2 | 962 | IL6R-BP508/IL6R-L (antibody, human IgG1, kappa, name in EU numbering, copies: 2 + 2) heavy: QVQLQESGPGLVKPSETLSLTCAVSGHSISHDHAWSWVRQPPGEGLEWIGFISYSGITNYNPSLQGRVTISRDNSKNTLYLQMNSLRAEDTAVYYCARSLARTTAMDYWGEGTLVTVSSASTKGPSVFPLAPSSKSTSGGTAALGCLVKDYFPEPVTVSWNSGALTSGVHTFPAVLQSSGLYSLSSVVTVPSSSLGTQTYICNVNHKPSNTKVDKKVEPKSCDKTHTCPPCPAPDLLGDDSVFLFPPKPKDTLMISRTPEVTCVVIDVAEEDGPVKFNWYVDGVEVHNAKTKPREEQDNSTYRVVSVLTVLHQDWLNGKEYKCKVSNKALPAPIEKTISKAKGQPREPQVYTLPPSRDELTKNQVSLTCLVKGFYPSDIAVEWESNGQPENNYKTTPPVLDSDGSFFLYSKLTVDKSRWQQGNVFSCSVMHEALHNHYTQESLSLSP light: not shown |
| – | 20 | 145 | 2.6 | 514 | IL6R-BP505/IL6R-L (antibody, human IgG1, kappa, name in EU numbering, copies: 2 + 2) heavy: QVQLQESGPGLVKPSETLSLTCAVSGHSISHDHAWSWVRQPPGEGLEWIGFISYSGITNYNPSLQGRVTISRDNSKNTLYLQMNSLRAEDTAVYYCARSLARTTAMDYWGEGTLVTVSSASTKGPSVFPLAPSSKSTSGGTAALGCLVKDYFPEPVTVSWNSGALTSGVHTFPAVLQSSGLYSLSSVVTVPSSSLGTQTYICNVNHKPSNTKVDKKVEPKSCDKTHTCPPCPAPDLLGDDSVFLFPPKPKDTLMISRTPEVTCVVIDVAEEDGDVKFNWYVDGVEVHNAKTKPREEQYNSTYRVVSVLTVLHQDWLNGKEYKCKVSNKALPAPIEKTISKAKGQPREPQVYTLPPSRDELTKNQVSLTCLVKGFYPSDIAVEWESNGQPENNYKTTPPVLDSDGSFFLYSKLTVDKSRWQQGNVFSCSVMHEALHNHYTQESLSLSP light: not shown |
